This is an account of results in patent US20170081400A1 (CEPHALON, published 2017).

Test [1] has as its target T1, human TL1A extracellular domain with N-terminal HIS and FLAG tag (human, UniProt O95150 72-251).
T1 construct: whole entry named. ~70 kDa fraction purified by gel filtration
T1 sequence: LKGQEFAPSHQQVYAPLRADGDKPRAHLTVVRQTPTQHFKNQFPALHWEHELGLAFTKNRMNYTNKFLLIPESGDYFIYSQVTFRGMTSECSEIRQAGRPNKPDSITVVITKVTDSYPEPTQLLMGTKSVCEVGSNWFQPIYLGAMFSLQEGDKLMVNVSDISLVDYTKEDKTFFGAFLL
The test can be described thus: KinExA, 320-587 as CBP, free 320-587 captured on TL1A-coated Sepharose beads; repeat 1. For orientation: In KinExA the mixture passes briefly over coated beads that capture the unbound partner.

Test [2] addresses T1, human TL1A extracellular domain with …. The test can be described thus: KinExA, TL1A as CBP, free TL1A captured on 320-587-coated PMMA beads; average of two.
The target is the same in test [3]. The test can be described thus: KinExA, TL1A as CBP, free TL1A captured on 320-587-coated PMMA beads; repeat 2.
The target is the same in test [4]. Description: KinExA, 320-587 as CBP, free 320-587 captured on TL1A-coated Sepharose beads; average of two.
The target of test [5] is T2, single-site biotinylated human TL1A (human, UniProt O95150 72-251, single-site biotinylated (site not stated)).
T2 construct: construct used for biotinylation not described
T2 sequence: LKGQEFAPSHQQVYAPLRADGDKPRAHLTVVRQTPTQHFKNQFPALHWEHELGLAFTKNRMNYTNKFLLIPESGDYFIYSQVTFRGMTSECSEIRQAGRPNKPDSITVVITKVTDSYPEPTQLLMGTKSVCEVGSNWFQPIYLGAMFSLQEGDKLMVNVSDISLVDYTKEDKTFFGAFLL
Description: competition ELISA: antibody dilutions pre-incubated with biotinylated human TL1A (1 µg/ml), added to plate-coated DcR3/Fc; bound TL1A detected with streptavidin-HRP; blocked partner DcR3/Fc [bottom panel]. The method, then: 1.8. […] DR3/Fc Chimera (R&D Systems) or DcR3/Fc Chimera (R&D Systems) was coated onto a 96-well plate (Maxisorp, Nunc) at a concentration of 2 μg/ml.

Test [6] addresses T1, human TL1A extracellular domain with …. Description: KinExA, 320-587 as CBP, free 320-587 captured on TL1A-coated Sepharose beads; repeat 2.
Test [7] shares this target. Description: KinExA, TL1A as CBP, free TL1A captured on 320-587-coated PMMA beads; repeat 1.
Another test concerns the target T3, mouse TL1A (mouse, UniProt Q5UBV8 73-252).
T3 construct: recombinantly produced; whole entry named
T3 sequence: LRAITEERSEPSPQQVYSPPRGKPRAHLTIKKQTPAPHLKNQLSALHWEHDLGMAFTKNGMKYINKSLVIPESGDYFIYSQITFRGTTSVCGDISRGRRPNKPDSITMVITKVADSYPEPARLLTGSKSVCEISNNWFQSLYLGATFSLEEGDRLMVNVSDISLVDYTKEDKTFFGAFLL
Description: SPR: 320-587 captured on Protein A, TL1A of the species flowed over. (In general: Surface plasmon resonance follows binding to a sensor surface in real time, without labels.)

The next test deals with T4, rat TL1A (rat, UniProt Q8K3Y7 73-252).
T4 construct: recombinantly produced; whole entry named
T4 sequence: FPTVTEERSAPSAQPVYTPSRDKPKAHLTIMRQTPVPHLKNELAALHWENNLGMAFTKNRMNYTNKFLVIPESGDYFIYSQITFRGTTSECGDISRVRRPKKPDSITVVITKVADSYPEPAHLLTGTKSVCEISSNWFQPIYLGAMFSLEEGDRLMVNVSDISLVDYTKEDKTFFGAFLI
The description is as above.

Another test concerns the target T5, cat TL1A (cat).
T5 construct: recombinantly produced; whole entry named
T5 chain: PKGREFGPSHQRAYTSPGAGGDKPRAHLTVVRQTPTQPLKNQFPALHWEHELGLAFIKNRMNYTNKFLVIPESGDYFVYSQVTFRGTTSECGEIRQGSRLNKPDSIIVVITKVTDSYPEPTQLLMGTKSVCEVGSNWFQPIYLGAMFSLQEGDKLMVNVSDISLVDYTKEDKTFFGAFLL
Described as above.

For a further test, the target named is T6, dog TL1A (dog).
T6 construct: recombinantly produced; whole entry named
T6 chain: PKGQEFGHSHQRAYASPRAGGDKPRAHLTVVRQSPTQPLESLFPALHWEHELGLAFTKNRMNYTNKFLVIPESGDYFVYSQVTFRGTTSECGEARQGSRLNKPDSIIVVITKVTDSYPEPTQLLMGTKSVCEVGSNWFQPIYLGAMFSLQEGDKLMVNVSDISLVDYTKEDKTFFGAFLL
Described as above.

The target of a further test is T7, rabbit TL1A (rabbit).
T7 construct: recombinantly produced; whole entry named
T7 chain: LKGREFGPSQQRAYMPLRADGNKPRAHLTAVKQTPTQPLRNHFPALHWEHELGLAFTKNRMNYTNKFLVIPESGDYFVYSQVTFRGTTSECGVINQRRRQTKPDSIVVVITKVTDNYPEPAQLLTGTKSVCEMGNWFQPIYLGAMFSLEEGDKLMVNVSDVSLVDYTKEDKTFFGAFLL
The test is described as above.

For the next test, the target named is T8, guinea pig TL1A (guinea pig).
T8 construct: recombinantly produced; whole entry named
T8 chain: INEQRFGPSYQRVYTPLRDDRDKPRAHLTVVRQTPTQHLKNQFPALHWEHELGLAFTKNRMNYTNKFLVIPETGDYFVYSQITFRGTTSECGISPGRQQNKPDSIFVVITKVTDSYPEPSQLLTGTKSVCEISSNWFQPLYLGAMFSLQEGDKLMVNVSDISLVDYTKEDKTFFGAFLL
Described as above.

The target of another test is T9, cynomolgus monkey TL1A (cynomolgus monkey, UniProt O95150 72-251 (human entry), limits assumed).
T9 construct: recombinantly produced; whole entry named
T9 chain: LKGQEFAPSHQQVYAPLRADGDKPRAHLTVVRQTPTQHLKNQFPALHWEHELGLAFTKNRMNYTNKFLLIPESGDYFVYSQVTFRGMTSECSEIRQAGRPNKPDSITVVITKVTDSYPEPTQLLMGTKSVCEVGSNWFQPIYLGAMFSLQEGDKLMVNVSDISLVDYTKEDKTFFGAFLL
The test is described as above.

The target of test [8] is T10, human TL1A extracellular domain with N-terminal HIS and FLAG tag (human, UniProt O95150 72-251).
T10 construct: the whole entry is named; also called TNFSF15
T10 sequence: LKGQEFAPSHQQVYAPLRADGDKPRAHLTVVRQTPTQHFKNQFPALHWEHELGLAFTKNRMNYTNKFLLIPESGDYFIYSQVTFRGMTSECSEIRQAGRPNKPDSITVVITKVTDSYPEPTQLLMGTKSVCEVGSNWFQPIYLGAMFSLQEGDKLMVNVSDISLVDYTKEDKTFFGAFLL
Description: SPR Run 8, antibody on Protein A, TL1A 5 ug/mL, timepoint 590. The text has this:
(§1) 1.5. Antibody expression and antigen binding as determined by SPR. Using a CM5 sensor chip (GE Healthcare) Protein A (Pierce) was coupled to the chip surface using an amine coupling kit (GE Healthcare). Protein A was coupled on flow cell 1 and 2 (or alternatively 3 and 4) using a BIACORE® T200. […] The amount of supernatant or purified protein (as well as the concentration) injected during the capture stage varied between runs and is specified in the header of the Tables 3-11. At the end of injection of the supernatant or purified antibody the change in response units was measured. This value was reported as Capture Level in Tables 3-11. […] The response units were measured prior to the end of the dissociation phase. […] The sensorgrams were double referenced (flow cell 2 is subtracted from flow cell 1 and a buffer blank). As there were a large number of antibody variants to screen, these were screened across different runs (Tables 3-11). […] A summary of the conditions used in each run is below:
(§2) 2.1. […] In some experiment the antibodies were purified using Protein A chromatography (See 1.4) and purified antibodies were used in BIACORE® (GE Healthcare) experiments.

Test [9] concerns the target T10, human TL1A extracellular domain with …. The test can be described thus: cell-based or functional assay.
The target is the same in test [10]. Description: KinExA, Sepharose beads coated with TL1A, 320-587 as the CBP, assay 4.
Test [11] has the same target. Description: KinExA, Sepharose beads coated with TL1A, 320-587 as the CBP, assay 3.
Test [12] has the same target. The test can be described thus: KinExA, Sepharose beads coated with TL1A, 320-587 as the CBP, assay 5.
For test [13] the target is unchanged. The test can be described thus: SPR Run 8, antibody on Protein A, TL1A 5 ug/mL, timepoint 44.
Description: as §1, §2

The target is the same in test [14]. Description: KinExA, Sepharose beads coated with TL1A, 320-587 as the CBP, average of 5 assays (SD 8.33).
Test [15] shares this target. The test can be described thus: KinExA, Sepharose beads coated with TL1A, 320-587 as the CBP, assay 1.
For test [16] the target is unchanged. Description: KinExA, PMMA beads coated with 320-587, TL1A as the CBP, average of 3 assays (SD 13.5). How it is done:
(§3) Using the time to reach equilibrium determined above, all curves were allowed to come to equilibrium in a 25° C. incubator for 3 days.

For test [17] the target is unchanged. The test can be described thus: KinExA, PMMA beads coated with 320-587, TL1A as the CBP, assay 2. The method, then: as §3
Test [18] shares this target. The test can be described thus: KinExA, Sepharose beads coated with TL1A, 320-587 as the CBP, assay 2.
The target is the same in test [19]. Description: KinExA, PMMA beads coated with 320-587, TL1A as the CBP, assay 1. How it is done:
as §3

Test [20] shares this target. The test can be described thus: KinExA, PMMA beads coated with 320-587, TL1A as the CBP, assay 3. The method, then: as §3

B1: 320-587 (antibody, name in Kabat numbering, V domains shown)
VH: QVQLVQSGAEVKKPGASVKVSCKASGYTFTSYDINWVRQAPGQGLEWMGWLNPNSGYTGYAQKFQGRVTMTADRSTSTAYMELSSLRSEDTAVYYCAREVPETAAFEYWGQGTLVTVSS
VL: QSVLTQPPSVSGAPGQRVTISCTSSSSDIGAGLGVHWYQQLPGTAPKLLIEGYYNRPSGVPDRFSGSKSGTSASLTITGLLPEDEGDYYCQSWDGTLSALFGGGTKLTVLG
notes: human IgG1, lambda
With B1, the kon (as a rule, a measure of how fast the partners come together) in test [1] is 835000 M⁻¹ s⁻¹; in test [2], 593000 M⁻¹ s⁻¹; in [3] it was 574000 M⁻¹ s⁻¹; in test [4], 790000 M⁻¹ s⁻¹; in test [6] it was 745000 M⁻¹ s⁻¹; in [7], 611000 M⁻¹ s⁻¹. Moreover, in test [5], the “IC50 (read off the curve)” value is approximately 1 µg/mL. The binding result with mouse TL1A, with rat TL1A, with cat TL1A, with dog TL1A, in the test with rabbit TL1A and with guinea pig TL1A was “binds” each time. Moreover, in the test with cynomolgus monkey TL1A, the binding result is on record as “binds”.

B2: 320-587 (antibody, name in Kabat numbering, V domains shown)
VH: QVQLVQSGAEVKKPGASVKVSCKASGYTFTSYDINWVRQAPGQGLEWMGWLNPNSGYTGYAQKFQGRVTMTADRSTSTAYMELSSLRSEDTAVYYCAREVPETAAFEYWGQGTLVTVSS
VL: QSVLTQPPSVSGAPGQRVTISCTSSSSDIGAGLGVHWYQQLPGTAPKLLIEGYYNRPSGVPDRFSGSKSGTSASLTITGLLPEDEGDYYCQSWDGTLSALFGGGTKLTVLG
notes: full-length human IgG1, lambda
For B2, in test [8], the “TL1A Binding Level (Late)” value was 122 RU. Further, the “Antibody IC50, TL1A induced caspase potency assay in TF-1 cells” value in test [9] was determined as 0.001 µg/mL. The “Fold improvement over 320-179, TL1A induced caspase potency assay in TF-1 cells” value in test [9] was 40 fold. For the same molecule, the Kd (commonly the constant that tells how readily two partners part at equilibrium) in [10] amounted to 0.0324 nM; in test [11], 0.0463 nM; in test [12] it was 0.0337 nM; in test [14], 0.041 nM; in [15], 0.0404 nM; in [16] it was 0.0415 nM. Further, the Kd in test [17] came out at 0.0571 nM; in test [18], 0.052 nM; in test [19], 0.0334 nM; in [20], 0.0341 nM. In [13], the “TL1A Binding Level (Early)” value is 123 RU.
